T1: FcγRIIa H extracellular domain with C-terminal His tag (human, UniProt P12318 34-217)
T1 construct: extracellular domain; Soluble receptor, H131 allotype; also called FcgRIIa H; FcgRIIaH; not shown: His tag at the C terminus
T1 sequence (looked up): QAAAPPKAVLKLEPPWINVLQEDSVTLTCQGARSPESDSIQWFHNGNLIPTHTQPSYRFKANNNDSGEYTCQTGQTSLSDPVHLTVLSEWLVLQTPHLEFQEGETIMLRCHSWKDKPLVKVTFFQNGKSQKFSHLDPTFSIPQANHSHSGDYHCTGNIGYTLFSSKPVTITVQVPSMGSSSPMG

T2: FcγRIIa R extracellular domain with C-terminal His tag (human, UniProt P12318 34-217)
T2 construct: extracellular domain; Soluble receptor, R131 allotype; also called FcgRIIa R; FcgRIIaR; not shown: His tag at the C terminus
T2 sequence (looked up): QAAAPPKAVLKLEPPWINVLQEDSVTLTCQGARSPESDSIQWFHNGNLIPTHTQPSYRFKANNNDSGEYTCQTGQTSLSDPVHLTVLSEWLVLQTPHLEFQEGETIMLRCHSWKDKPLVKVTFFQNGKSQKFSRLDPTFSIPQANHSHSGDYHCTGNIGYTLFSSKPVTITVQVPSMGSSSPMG


Legend:
[1] = molecular target: FcγRIIIa extracellular domain with C-terminal His tag (human, UniProt P08637 17-208); test: SPR (Biacore), relative binding activity; GpH7-A5/GpH7-B3/GpL16-k0 = 100
[2] = molecular target: T1, FcγRIIa H extracellular domain with …; test: SPR (Biacore); ratio KD for FcγRIIb / KD for FcγRIIa H
Procedure: (§1) These antibodies were assessed for the binding activity to each FcγR according to the method described in Reference Example 2.
(§2) Analysis of interaction between objective antibody and the FcγR was carried out using Biacore T100 (GE Healthcare). HBS-EP+ (GE Healthcare) was used as the running buffer, and the measurement temperature was set to 25° C. Chips produced by immobilizing the antigen peptide by the amine coupling method to a Series S Sencor Chip CM5 (GE Healthcare), or alternatively, chips produced by allowing preliminarily biotinylated antigen peptides to interact with and immobilize onto a Series S Sensor Chip SA (certified) (GE Healthcare) were used. Antibodies of interest were captured onto an antigen peptide-immobilized chip, and allowed to interact to each FcγR diluted with running buffer. To regenerate and repeatedly use the chip, the antibodies captured on the chip were washed off by reacting 10 mM glycine-HCl, pH 1.5.

[3] = molecular target: T2, FcγRIIa R extracellular domain with …; test: SPR (Biacore); ratio KD for FcγRIIb / KD for FcγRIIa R
Procedure: as §1, §2

Sequence of FcγRIIIa extracellular domain with C-terminal His tag (P08637 17-208): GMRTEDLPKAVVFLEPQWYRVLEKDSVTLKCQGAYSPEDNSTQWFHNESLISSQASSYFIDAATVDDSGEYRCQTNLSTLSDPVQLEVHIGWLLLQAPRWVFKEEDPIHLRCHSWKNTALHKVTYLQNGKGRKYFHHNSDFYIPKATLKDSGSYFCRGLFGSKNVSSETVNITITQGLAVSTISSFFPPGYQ

| FcγRIIIa BINDING ACTIVITY [1] | A/I ratio [2] | A/I ratio [3] | Binder |
| --- | --- | --- | --- |
| 84% |  |  | GpH7-A5/GpH7-HA11/GpL16-k0 (antibody, human IgG1, kappa, H2 S298A and P329R) heavy 1: not shown heavy 2: QVQLVQSGAEVKKPGASVTVSCKASGYTFTDYEMHWIRQPPGEGLEWIGAIDPKTGDTAYSESFQDRVTLTADKSTSTAYMELSSLTSEDTAVYYCTRFYSYTYWGQGTLVTVSSASTKGPSVFPLAPSSKSTSGGTAALGCLVKDYFPEPVTVSWNSGALTSGVHTFPAVLQSSGLYSLSSVVTVPSSSLGTQTYICNVNHKPSNTKVDKKVEPKSCDKTHTCPPCPAPELLGGPSVFLFPPKPKDTLMISRTPEVTCVVVDVSHEDPEVKFNWYVDGVEVHNAKTKPREEQYNATYRVVSVLTVLHQDWLNGKEYKCKVSNKALRAPIEKTISKAKGQPREPQVYTLPPSRDELTKNQVSLTCLVKGFYPSDIAVEWESNGQPENNYKTTPPVLDSDGSFFLYSKLTVDKSRWQQGNVFSCSVMHEALHNHYTQESLSLSP light: DIVMTQSPLSLPVTPGEPASISCQASESLVHSNRNTYLHWYLQKPGQSPQLLIYKVSNRFSGVPDRFSGSGSGTDFTLKISRVEAEDVGVYYCSQNTHVPPTFGQGTKVEIERTVAAPSVFIFPPSDEQLKSGTASVVCLLNNFYPREAKVQWKVDNALQSGNSQESVTEQDSKDSTYSLSSTLTLSKADYEKHKVYACEVTHQGLSSPVTKSFNRGEC |
|  | 6.2 | 4.9 | GpH7-Kn033/GpH7-Hl033/GpL16-k0 (antibody, human IgG1, kappa, Anti-glypican-3 IgG1 (G1d, C-terminal Gly-Lys removed) with knobs-into-holes alterations only; also called Kn033/Hl033) heavy 1: not shown heavy 2: not shown light: DIVMTQSPLSLPVTPGEPASISCQASESLVHSNRNTYLHWYLQKPGQSPQLLIYKVSNRFSGVPDRFSGSGSGTDFTLKISRVEAEDVGVYYCSQNTHVPPTFGQGTKVEIERTVAAPSVFIFPPSDEQLKSGTASVVCLLNNFYPREAKVQWKVDNALQSGNSQESVTEQDSKDSTYSLSSTLTLSKADYEKHKVYACEVTHQGLSSPVTKSFNRGEC |
|  | 8.6 | 13 | GpH7-Kn037/GpH7-Hl036/GpL16-k0 (antibody, human IgG1, kappa, Anti-glypican-3 IgG1, knobs-into-holes; also called Kn037/Hl036) heavy 1: QVQLVQSGAEVKKPGASVTVSCKASGYTFTDYEMHWIRQPPGEGLEWIGAIDPKTGDTAYSESFQDRVTLTADKSTSTAYMELSSLTSEDTAVYYCTRFYSYTYWGQGTLVTVSSASTKGPSVFPLAPSSKSTSGGTAALGCLVKDYFPEPVTVSWNSGALTSGVHTFPAVLQSSGLYSLSSVVTVPSSSLGTQTYICNVNHKPSNTKVDKKVEPKSCDKTHTCPPCPAPELLAGPDVFLFPPKPKDTLMISRTPEVTCVVVDVSHEDPEVKFNWYVDGVEVHNAKTKPREEQYNSTYRVVSVLTVLHQDWLNGKEYKCKVSNKALPAPEEKTISKAKGQPREPQVCTLPPSRDELTKNQVSLWCLVKGFYPSDIAVEWESNGQPENNYKTTPPVLDSDGSFFLYSKLTVDKSRWQQGNVFSCSVMHEALHNHYTQKSLSLSP heavy 2: QVQLVQSGAEVKKPGASVTVSCKASGYTFTDYEMHWIRQPPGEGLEWIGAIDPKTGDTAYSESFQDRVTLTADKSTSTAYMELSSLTSEDTAVYYCTRFYSYTYWGQGTLVTVSSASTKGPSVFPLAPSSKSTSGGTAALGCLVKDYFPEPVTVSWNSGALTSGVHTFPAVLQSSGLYSLSSVVTVPSSSLGTQTYICNVNHKPSNTKVDKKVEPKSCDKTHTCPPCPAPELLAGPDVFLFPPKPKDTLMISRTPEVTCVVVDVSHEDPEVKFNWYVDGVEVHNAKTKPREEQYNSTYRVVSVLTVLHQDWLNGKEYKCKVSNKALPAPEEKTISKAKGQPREPQVYTLPPSRCELTKNQVSLSCAVKGFYPSDIAVEWESNGQPENNYKTTPPVLDSDGSFFLVSKLTVDKSRWQQGNVFSCSVMHEALHNHYTQKSLSLSP light: DIVMTQSPLSLPVTPGEPASISCQASESLVHSNRNTYLHWYLQKPGQSPQLLIYKVSNRFSGVPDRFSGSGSGTDFTLKISRVEAEDVGVYYCSQNTHVPPTFGQGTKVEIERTVAAPSVFIFPPSDEQLKSGTASVVCLLNNFYPREAKVQWKVDNALQSGNSQESVTEQDSKDSTYSLSSTLTLSKADYEKHKVYACEVTHQGLSSPVTKSFNRGEC |
|  | 0.93 | 1.8 | GpH7-Kn032/GpH7-Hl032/GpL16-k0 (antibody, human IgG1, kappa, Anti-glypican-3 IgG1, knobs-into-holes; both H chains carry S239D/A330L/I332E; also called Kn032/Hl032) heavy 1: QVQLVQSGAEVKKPGASVTVSCKASGYTFTDYEMHWIRQPPGEGLEWIGAIDPKTGDTAYSESFQDRVTLTADKSTSTAYMELSSLTSEDTAVYYCTRFYSYTYWGQGTLVTVSSASTKGPSVFPLAPSSKSTSGGTAALGCLVKDYFPEPVTVSWNSGALTSGVHTFPAVLQSSGLYSLSSVVTVPSSSLGTQTYICNVNHKPSNTKVDKKVEPKSCDKTHTCPPCPAPELLGGPDVFLFPPKPKDTLMISRTPEVTCVVVDVSHEDPEVKFNWYVDGVEVHNAKTKPREEQYNSTYRVVSVLTVLHQDWLNGKEYKCKVSNKALPLPEEKTISKAKGQPREPQVCTLPPSRDELTKNQVSLWCLVKGFYPSDIAVEWESNGQPENNYKTTPPVLDSDGSFFLYSKLTVDKSRWQQGNVFSCSVMHEALHNHYTQKSLSLSP heavy 2: QVQLVQSGAEVKKPGASVTVSCKASGYTFTDYEMHWIRQPPGEGLEWIGAIDPKTGDTAYSESFQDRVTLTADKSTSTAYMELSSLTSEDTAVYYCTRFYSYTYWGQGTLVTVSSASTKGPSVFPLAPSSKSTSGGTAALGCLVKDYFPEPVTVSWNSGALTSGVHTFPAVLQSSGLYSLSSVVTVPSSSLGTQTYICNVNHKPSNTKVDKKVEPKSCDKTHTCPPCPAPELLGGPDVFLFPPKPKDTLMISRTPEVTCVVVDVSHEDPEVKFNWYVDGVEVHNAKTKPREEQYNSTYRVVSVLTVLHQDWLNGKEYKCKVSNKALPLPEEKTISKAKGQPREPQVYTLPPSRCELTKNQVSLSCAVKGFYPSDIAVEWESNGQPENNYKTTPPVLDSDGSFFLVSKLTVDKSRWQQGNVFSCSVMHEALHNHYTQKSLSLSP light: DIVMTQSPLSLPVTPGEPASISCQASESLVHSNRNTYLHWYLQKPGQSPQLLIYKVSNRFSGVPDRFSGSGSGTDFTLKISRVEAEDVGVYYCSQNTHVPPTFGQGTKVEIERTVAAPSVFIFPPSDEQLKSGTASVVCLLNNFYPREAKVQWKVDNALQSGNSQESVTEQDSKDSTYSLSSTLTLSKADYEKHKVYACEVTHQGLSSPVTKSFNRGEC |
|  | 9.5 | 22 | GpH7-Kn045/GpH7-Hl048/GpL16-k0 (antibody, human IgG1, kappa, Heterodimerized anti-glypican-3 IgG1, knobs-into-holes; also called Kn045/Hl048) heavy 1: QVQLVQSGAEVKKPGASVTVSCKASGYTFTDYEMHWIRQPPGEGLEWIGAIDPKTGDTAYSESFQDRVTLTADKSTSTAYMELSSLTSEDTAVYYCTRFYSYTYWGQGTLVTVSSASTKGPSVFPLAPSSKSTSGGTAALGCLVKDYFPEPVTVSWNSGALTSGVHTFPAVLQSSGLYSLSSVVTVPSSSLGTQTYICNVNHKPSNTKVDKKVEPKSCDKTHTCPPCPAPEYYAGPSVFLFPPKPKDTLMISRTPEVTCVVVDVSDEDPEVKFNWYVDGVEVHNAKTKPREEQYNATYRVVSVLTVLHQDWLNGKEYKCKVSNKALPAPIEKTISKAKGQPREPQVCTLPPSRDELTKNQVSLWCLVKGFYPSDIAVEWESNGQPENNYKTTPPVLDSDGSFFLYSKLTVDKSRWQQGNVFSCSVMHEALHNHYTQKSLSLSP heavy 2: QVQLVQSGAEVKKPGASVTVSCKASGYTFTDYEMHWIRQPPGEGLEWIGAIDPKTGDTAYSESFQDRVTLTADKSTSTAYMELSSLTSEDTAVYYCTRFYSYTYWGQGTLVTVSSASTKGPSVFPLAPSSKSTSGGTAALGCLVKDYFPEPVTVSWNSGALTSGVHTFPAVLQSSGLYSLSSVVTVPSSSLGTQTYICNVNHKPSNTKVDKKVEPKSCDKTHTCPPCPAPELLAGPDVFLFPPKPKDTLMISRTPEVTCVVVDVSHEDPEVKFNWYVDGVEVHNAKTKPREEQYNSTYRVVSVLTVLHQDWLNGKEYKCKVSNKALPKPEEKTISKAKGQPREPQVYTLPPSRCELTKNQVSLSCAVKGFYPSDIAVEWESNGQPENNYKTTPPVLDSDGSFFLVSKLTVDKSRWQQGNVFSCSVMHEALHNHYTQKSLSLSP light: DIVMTQSPLSLPVTPGEPASISCQASESLVHSNRNTYLHWYLQKPGQSPQLLIYKVSNRFSGVPDRFSGSGSGTDFTLKISRVEAEDVGVYYCSQNTHVPPTFGQGTKVEIERTVAAPSVFIFPPSDEQLKSGTASVVCLLNNFYPREAKVQWKVDNALQSGNSQESVTEQDSKDSTYSLSSTLTLSKADYEKHKVYACEVTHQGLSSPVTKSFNRGEC |

From US20150344570A1 (published 2015)
